According to patent publication US20120171195A1:
Blank lines part the entries; values can stand above or below the substance they belong to.

Assays:
HLA-B*0801 (human) = HLA-B*0801 (human) (UniProt P01889); test: Luminex beads; MAb 1/1600; PBS only
HLA-B*2705 (human) = HLA-B*2705 (human) (UniProt P01889); test: Luminex beads; MAb 1/1600; PBS only
HLA-B*2708 (human) = HLA-B*2708 (human) (UniProt P01889); test: Luminex beads; MAb 1/1600; PBS only
HLA-B*4101 (human) = HLA-B*4101 (human) (UniProt P01889); test: Luminex beads; MAb 1/1600; PBS only
HLA-B*4501 (human) = test: Luminex beads; MAb 1/1600; PBS only
HLA-B*4601 (human) = HLA-B*4601 (human) (UniProt P01889); test: Luminex beads; MAb 1/1600; PBS only
HLA-B*4701 (human) [1] = test: Luminex beads; MAb 1/1600; PBS only
HLA-B*5101 (human) = test: Luminex beads; MAb 1/1600; PBS only
HLA-B*5201 (human) = test: Luminex beads; MAb 1/1600; PBS only
HLA-B*5801 (human) = test: Luminex beads; MAb 1/1600; PBS only
HLA-B*8201 (human) = HLA-B*8201 (human) (UniProt P01889); test: Luminex beads; MAb 1/1600; PBS only
HLA-Cw*0202 (human) = test: Luminex beads; MAb 1/1600; PBS only
HLA-Cw*0303 (human) = test: Luminex beads; MAb 1/1600; PBS only
HLA-Cw*0304 (human) [2] = test: Luminex beads; MAb 1/1600; PBS only
HLA-Cw*1502 (human) = test: Luminex beads; MAb 1/1600; PBS only
HLA-Cw*1601 (human) = HLA-Cw*1601 (human) (UniProt P10321); test: Luminex beads; MAb 1/1600; PBS only
HLA-B*4402 (human) = test: Luminex beads; MAb 1/200; competitor rHLA-E
HLA-B*4403 (human) = test: Luminex beads; MAb 1/200; competitor rHLA-E
HLA-B*4701 (human) [3] = test: Luminex beads; MAb 1/200; competitor rHLA-E
HLA-Cw*0302 (human) = HLA-Cw*0302 (human) (UniProt P10321); test: Luminex beads; MAb 1/200; competitor rHLA-E
HLA-Cw*0702 (human) = HLA-Cw*0702 (human) (UniProt P10321); test: Luminex beads; MAb 1/200; competitor rHLA-E
HLA-A*2403 (A24) (human) = test: Luminex single-antigen beads; MEM-E/02 1/600; serum Mi127 1/100
HLA-A*2501 (A25) (human) = test: as above
HLA-A*2901 (A29) (human) = HLA-A*2901 (A29) (human) (UniProt P04439); test: as above
HLA-A*3002 (A30) (human) = HLA-A*3002 (A30) (human) (UniProt P04439); test: as above
HLA-A*3201 (A32) (human) = test: as above
HLA-A*3301 (A33) (human) = test: as above
HLA-B*0801 (B8) (human) = HLA-B*0801 (B8) (human) (UniProt P01889); test: as above
HLA-B*1301 (B13) (human) = test: as above
HLA-B*1516 (B63) (human) = test: as above
HLA-B*2708 (B27) (human) = HLA-B*2708 (B27) (human) (UniProt P01889); test: as above
HLA-B*3901 (B39) (human) = HLA-B*3901 (B39) (human) (UniProt P01889); test: as above
HLA-B*4801 (B48) (human) = HLA-B*4801 (B48) (human) (UniProt P01889); test: as above
HLA-B*5102 (B51) (human) = test: as above
HLA-B*5901 (B59) (human) = test: as above
HLA-Cw*0304 (human) [4] = test: as above
[5] = biological target: HLA-Cw*0401 (Cw4) (human); test: as above
[6] = biological target: HLA-Cw*0801 (Cw8) (human) (UniProt P10321); test: as above
[7] = biological target: HLA-Cw*1203 (Cw12) (human) (UniProt P10321); test: as above
[8] = biological target: HLA-Cw*1502 (Cw15) (human); test: as above
[9] = biological target: HLA-Cw*1802 (Cw18) (human) (UniProt P10321); test: as above

MFI (HLA-B*0801 (human)): 262 MFI
MFI (HLA-B*2705 (human)): 191 MFI
MFI (HLA-B*2708 (human)): 396 MFI
MFI (HLA-B*4101 (human)): 645 MFI
MFI (HLA-B*4501 (human)): 808 MFI
MFI (HLA-B*4601 (human)): 375 MFI
MFI (HLA-B*4701 (human) [1]): 804 MFI
MFI (HLA-B*5101 (human)): 347 MFI
MFI (HLA-B*5201 (human)): 537 MFI
MFI (HLA-B*5801 (human)): 524 MFI
MFI (HLA-B*8201 (human)): 417 MFI
MFI (HLA-Cw*0202 (human)): 785 MFI
MFI (HLA-Cw*0303 (human)): 530 MFI
MFI (HLA-Cw*0304 (human) [2]): 512 MFI
MFI (HLA-Cw*1502 (human)): 485 MFI
MFI (HLA-Cw*1601 (human)): 524 MFI
MFI (HLA-B*4402 (human)): 66 MFI
MFI (HLA-B*4403 (human)): 75 MFI
MFI (HLA-B*4701 (human) [3]): 67 MFI
MFI (HLA-Cw*0302 (human)): 137 MFI
MFI (HLA-Cw*0702 (human)): 137 MFI
Substance: murine monoclonal antibody (MAb) MEM-E/02

% inhibition (HLA-A*2403 (A24) (human)): 36%
% inhibition (HLA-A*2501 (A25) (human)): 36%
MFI (HLA-A*2901 (A29) (human)): < 500 MFI
MFI (HLA-A*3002 (A30) (human)): < 500 MFI
MFI (HLA-A*3201 (A32) (human)): < 500 MFI
MFI (HLA-A*3301 (A33) (human)): 3170 MFI
MFI (HLA-B*0801 (B8) (human)): < 500 MFI
MFI (HLA-B*1301 (B13) (human)): < 500 MFI
MFI (HLA-B*1516 (B63) (human)): 1840 MFI
MFI (HLA-B*2708 (B27) (human)): 2430 MFI
% inhibition (HLA-B*3901 (B39) (human)): 16%
MFI (HLA-B*3901 (B39) (human)): 1480 MFI
% inhibition (HLA-B*4801 (B48) (human)): 16%
MFI (HLA-B*5102 (B51) (human)): 2520 MFI
% inhibition (HLA-B*5901 (B59) (human)): 8%
MFI (HLA-B*5901 (B59) (human)): 848 MFI
MFI (HLA-Cw*0304 (human) [4]): < 500 MFI
MFI [5]: < 500 MFI
MFI [6]: < 500 MFI
MFI [7]: < 500 MFI
MFI [8]: < 500 MFI
MFI [9]: < 500 MFI
Substance: murine monoclonal antibody MAb MEM-E/02
